Data taken from patent publication US20210315992A1, “ADJUVANT EFFECT OF THE TLR1/2 AGONIST DIPROVOCIM SYNERGIZES WITH CHECKPOINT-INHIBITING ANTIBODIES TO ELIMINATE DISEASE” (The Board of Regents of the University of Texas System, priority 2018, published 2021).

How the values were obtained:
B16-OVA melanoma [1] = assay: B16-OVA melanoma, post-tumor treatment (immunization day 3 after tumor inoculation); assay type: in vivo, mouse; settings: immunization three days after tumor inoculation, plus anti-PD-L1
Description: C57BL/6J mice (n=8 mice per treatment) were injected s.c. with 2×10^5 B16-OVA melanoma cells on day 0. For pre-tumor treatment, mice were immunized i.m. with OVA (100 μg) mixed with vehicle or Diprovocim (10 mg/kg) or alum (2 mg/kg) on the same day prior to tumor injection. Mice received a booster immunization seven days later in which anti-PD-L1 (200 μg) was administered on days 3, 6 and 9 after tumor inoculation by i.p. injection. For post-tumor treatment, initial immunization was on day 3 after tumor inoculation, with a booster seven days later. Anti-PD-L1 (200 μg) was administered on days 3, 6, 9, 12, and 15 after tumor inoculation by i.p. injection. […] P values for tumor volume analysis apply to the final time point as indicated in graphs and were calculated by Student's t test. P values for survival analysis were calculated by Kaplan-Meier analysis. All results are representative of two independent studies.
For post-treatment, 10 mg/kg Diprovocim-1 or 2 mg/kg Alum with OVA (100 μg) was injected i.m. into mice on day 3 after tumor inoculation. Mice received a booster shot seven days after the first immunization. On day 3, 6, 9, 12 and 15 after tumor inoculation, mice were also injected i.p. with 200 μg anti-mPD-L1 in 100 μl saline.
Tumors were measured with a digital caliper (Fisher) and the tumor sizes were calculated using the following formula: volume=0.5×length×width^2. […]

[2] = test system: OVA peptide-pulsed target cells; assay: In vivo CTL killing assay; set-up: species or system mouse; settings: i.m. immunization, 100 μg OVA, Diprovocim 10 mg/kg; target cells i.v. day 7, read two days later
B16-OVA melanoma [3] = assay: B16-OVA melanoma, pre-tumor treatment (immunization on day of tumor inoculation); assay type: in vivo, mouse
Description: FIG. 4A through FIG. 4J illustrate inhibition of B16-OVA tumor growth by pre- or post-tumor treatment with Diprovocim-adjuvanted tumor vaccination and checkpoint blockade. FIG. 4A provides a schematic of pre- and post-tumor treatment protocols. C57BL/6J mice (n=8 mice per treatment) were injected s.c. with 2×10^5 B16-OVA melanoma cells on day 0. For pre-tumor treatment, mice were immunized i.m. with OVA (100 μg) mixed with vehicle or Diprovocim (10 mg/kg) or alum (2 mg/kg) on the same day prior to tumor injection. Mice received a booster immunization seven days later in which anti-PD-L1 (200 μg) was administered on days 3, 6 and 9 after tumor inoculation by i.p. injection. For post-tumor treatment, initial immunization was on day 3 after tumor inoculation, with a booster seven days later. Anti-PD-L1 (200 μg) was administered on days 3, 6, 9, 12, and 15 after tumor inoculation by i.p. injection. FIG. 4B through FIG. 4F illustrate pre-tumor treatment results. Tumor volume (FIG. 4B and FIG. 4D) and percent mouse survival (survivors/total mice) (FIG. 4C and FIG. 4E). […] FIG. 4G through FIG. 4J illustrate a comparison of pre-tumor (FIG. 4G and FIG. 4H) vs. post-tumor treatment (FIG. 4I and FIG. 4J). Tumor volume (FIG. 4G and FIG. 4I) and percent mouse survival (survivors/total mice) (FIG. 4H and FIG. 4J) are shown. P values for tumor volume analysis apply to the final time point as indicated in graphs and were calculated by Student's t test. P values for survival analysis were calculated by Kaplan-Meier analysis. All results are representative of two independent studies.
C57BL/6J mice (n=8) were injected s.c. with 2×10^5 B16-OVA melanoma cells on day 0. Anti-PD-L1 (200 μg) or mouse IgG2a isotype control antibody was administered on days 3, 6 and 9 after tumor inoculation by i.p. injection. FIG. 8A is a graph of tumor volume versus time and FIG. 8B is a graph showing percent mouse survival (survivors/total mice) versus time. The control values in both plots are shown above those for the anti-PD-L1 values where the two values diverge. […] Results are representative of two independent studies.
B16-OVA cells (B16F10 melanoma cells stably expressing chicken ovalbumin) were grown in DMEM containing 10% vol/vol FBS. A total of 2×10^5 B16-OVA cells in 100 μL PBS were injected s.c. into the right flank of 8-12 week old male C57BL/6J mice to establish tumors (n=8 mice per group). For pretreatment, 10 mg/kg Diprovocim-1 or 2 mg/kg alum with or without OVA (100 μg) was injected i.m. into mice on the same day as tumor inoculation (day 0). Mice received a booster shot seven days after the first immunization. On day 3, 6 and 9, some groups were injected i.p. with 200 μg checkpoint inhibitor (anti-mPD-L1, BioXcell) in 100 μl saline.
Tumors were measured with a digital caliper (Fisher) and the tumor sizes were calculated using the following formula: volume=0.5×length×width^2. Mice were sacrificed when the tumor length or width reached 2 cm.

OT-I CD8 T cells = assay: Cross-priming of CD8 T cells (CD69 on OT-I CD8 T cells co-cultured with DCs of immunized mice); assay type: in vivo, mouse; settings: DCs 24 hours after i.m. immunization, 24 hours co-culture
Description: C57BL/6J male mice were injected i.m. with 100 μg OVA mixed with vehicle or with 10 mg/kg Diprovocim (n=4 mice per treatment). 24 hours later, DCs from draining lymph nodes and spleen were purified by Mouse Pan Dendritic Cell Isolation Kit (Miltenyi Biotech). CD8 T cells from OT-I transgenic mice were purified by Mouse CD8+ T Cell Isolation Kit (Miltenyi Biotech). 3×10^5 DCs were co-cultured with 3×10^5 OT-I CD8 T cells in RPMI medium containing 10% vol/vol FBS and 1% vol/vol penicillin and streptomycin for 24 hours. Then, cells were collected and stained with anti-mouse CD3-FITC, anti-mouse CD8-BV510, and anti-mouse CD69-PE-CF594 (BioLegend) for 45 minutes. Then, the cells were washed twice with PBS. Stained cells were analyzed with an LSRII instrument and the flow cytometry data were analyzed using FlowJo software.

[4] = immunization on day of tumor inoculation, plus anti-PD-L1

B1: OVA: EndoFit ovalbumin, Invivogen; immunogen, given mixed with vehicle when without adjuvant (protein, UniProt P01012 2-386, looked up)
Ovalbumin: GSIGAASMEFCFDVFKELKVHHANENIFYCPIAIMSALAMVYLGAKDSTRTQINKVVRFDKLPGFGDSIEAQCGTSVNVHSSLRDILNQITKPNDVYSFSLASRLYAEERYPILPEYLQCVKELYRGGLEPINFQTAADQARELINSWVESQTNGIIRNVLQPSSVDSQTAMVLVNAIVFKGLWEKAFKDEDTQAMPFRVTEQESKPVQMMYQIGLFRVASMASEKMKILELPFASGTMSMLVLLPDEVSGLEQLESIINFEKLTEWTSSNVMEERKIKVYLPRMKMEEKYNLTSVLMAMGITDVFSSSANLSGISSAESLKISQAVHAAHAEINEAGREVVGSAEAGVDAASVSEEFRADHPFLFCIKHIATNAVLFFGRCVSP
For B1, the average survival time (B16-OVA melanoma [1]) was 22 days, the target cells eliminated [2] was “about 10%” and the average survival time (B16-OVA melanoma [3]; [4]) was 24 days. The “mice died by 38 days after tumor inoculation” value (B16-OVA melanoma [3]; [4]) was 100%, the “tumor growth rates and survival times compared with vehicle alone” value (B16-OVA melanoma [3]; single agent, no anti-PD-L1, i.m. day 0 and booster day 7) was “similar” and the “activation (CD69 upregulation) of OT-I CD8 T cells by DCs of immunized mice” value (OT-I CD8 T cells) was “failed to induce CD69 expression”.
